Where two headings read alike, the source gives them in different places. Blank lines part the entries; values can stand above or below the binder they belong to.
Tests used:
HLA-A*0201 (human) [1] = test: inhibition of 125I-labelled probe peptide binding to purified HLA-A*0201, gel filtration
HLA-A*0201 (human) [2] = test: competitive inhibition of 125I-labelled standard peptide binding to purified HLA, gel filtration
HLA-A*0206 (human) = test: competition with 125I-labelled standard peptide for purified HLA, gel filtration; conditions: remark: other sources report otherwise; for binding affinity ratio: scale: ratio
HLA-A*0202 (human) = test: as above
HLA-A*0201 (human) [3] = test: as above; conditions: for binding affinity ratio: remark: other sources report otherwise, scale: ratio
[4] = remark: other sources report otherwise

Binder: SLHLLSNDMCA (modifications not checked) [HuK2.175 …]
- IC50 (HLA-A*0201 (human) [1]; [4]): < 200 nM

Binder: KAWGEVKRQI (modifications not checked) [… (PSM, position 723)]
- binding affinity ratio (ratio to standard peptide) (HLA-A*0201 (human) [2]): 0.0001

Binder: KTHPNYISII (modifications not checked)
- binding affinity ratio (ratio to standard peptide) (HLA-A*0201 (human) [2]): 0.0001

Binder: KLIMYSAHDT (modifications not checked) [… (PAP, position 282)]
- binding affinity ratio (ratio to standard peptide) (HLA-A*0201 (human) [2]): 0.0002

Binder: KLLEKMGGSA (modifications not checked) [… (PSM, position 304)]
- binding affinity ratio (ratio to standard peptide) (HLA-A*0201 (human) [2]): 0.0003

Binder: VLAGGFFLL (modifications not checked) [peptide 1126.10 (PSM.27)]
- IC50 (HLA-A*0202 (human); [4]): 0.2 nM

Binder: ALFDIESKV (modifications not checked) [peptide 1129.08 (PSM.711)]
- IC50 (HLA-A*0202 (human); [4]): 0.7 nM

Binder: LLRLSEPAELT (modifications not checked) [… (PSA, position 119, 11 amino acids)]
- binding affinity ratio (HLA-A*0201 (human) [3]): 0.0023
- binding affinity ratio (HLA-A*0206 (human)): 0.0002

Binder: ITSWGPEPCAL (modifications not checked) [… (Kallikrein, position 226)]
- binding affinity ratio (ratio to standard peptide) (HLA-A*0201 (human) [2]; [4]): 0.0003

Binder: KAENIKKFL (modifications not checked) [… (PSM, position 66)]
- binding affinity ratio (ratio to standard peptide) (HLA-A*0201 (human) [2]): 0.0002

Binder: KIVIARYGKV (modifications not checked) [… (PSM, position 199)]
- binding affinity ratio (ratio to standard peptide) (HLA-A*0201 (human) [2]): 0.0002

The next lines start with the values.

- binding affinity ratio (ratio to standard peptide) (HLA-A*0201 (human) [2]; [4]): 0.0002
Binder: KITDVVKVLGL (modifications not checked) [… (Kallikrein, position 131)]

- IC50 (HLA-A*0201 (human) [2]; [4]): 50 nM
Binder: DLMLLRLSEPV (modifications not checked) [peptide 1419.13 … (HuK2.120.V11)]

- IC50 (HLA-A*0201 (human) [1]): < 200 nM
Binder: MMNDQLMFL (modifications not checked) [PSM.663 …]

- binding affinity ratio (ratio to standard peptide) (HLA-A*0201 (human) [2]): 0.0002
Binder: KINCSGKIV (modifications not checked)

- IC50 (HLA-A*0201 (human) [1]; [4]): < 200 nM
Binder: QLMFLERAFI (modifications not checked) [PSM.667 …]

- binding affinity ratio (IC50 of standard peptide / IC50 of test peptide) (HLA-A*0206 (human)): 0.0002
Binder: PALGTTCYA (modifications not checked) [PSA 142 …]

- binding affinity ratio (ratio to standard peptide) (HLA-A*0201 (human) [2]): 0.0001
Binder: KINCSGKIVI (modifications not checked)

- IC50 (HLA-A*0202 (human)): 0.4 nM
- IC50 (HLA-A*0201 (human) [3]): 64 nM
Binder: LMYSLVHNL (modifications not checked) [peptide 1126.14 (PSM.469)]

- binding affinity ratio (ratio to standard peptide) (HLA-A*0201 (human) [2]): 0.0001
Binder: IVIARYGKV (modifications not checked) [… (PSM, position 200)]

- IC50 (HLA-A*0206 (human)): 40 nM
Binder: RMMNDQLMFL (modifications not checked) [peptide 1126.06 (PSM.662)]

- binding affinity ratio (IC50 of standard peptide / IC50 of test peptide) (HLA-A*0206 (human)): 0.0002
Binder: PALGTTCYA (modifications not checked) [Kallikrein 146 …]

- binding affinity ratio (ratio to standard peptide) (HLA-A*0201 (human) [2]): 0.0002
Binder: KTYSVSFDSL (modifications not checked) [… (PSM, position 623)]

- binding affinity ratio (ratio to standard peptide) (HLA-A*0201 (human) [2]): 0.004
Binder: KLRELSELSL (modifications not checked) [… (PAP, position 234)]

- binding affinity ratio (ratio to standard peptide) (HLA-A*0201 (human) [2]): 0.0002
Binder: KTHPNYISI (modifications not checked)

- IC50 (HLA-A*0201 (human) [1]; [4]): < 200 nM
Binder: FLRPRSLQCV (modifications not checked) [HuK2.165 …]

- IC50 (HLA-A*0201 (human) [1]; [4]): < 200 nM
Binder: ALFDIESKV (modifications not checked) [PSM.711 …]

- binding affinity ratio (HLA-A*0201 (human) [3]): 0.0003
- binding affinity ratio (HLA-A*0206 (human)): -0.0001
Binder: SLHLLSNDM (modifications not checked) [Kallikrein (hK2) peptide … (position 175, 9 amino acids)]

— patent publication US20070020327A1
